According to article PMC4486954, “Highly homologous proteins exert opposite biological activities by using different interaction interfaces” (Scientific Reports, 2015):
cellulose membrane = C-terminus attached to a cellulose membrane (CelluSpots array) through an amide bond

T1: iASPP Ank-SH3 (Homo sapiens, UniProt Q8WUF5)
T1 construct: (2) iASPP Ank-SH3 603-828; HLT tag (His tag + lipoyl domain + TEV site) (N, cleaved yes); made in house; host or cells: E. coli HMS 174 (Novagen)
T1 sequence (Q8WUF5 603-828): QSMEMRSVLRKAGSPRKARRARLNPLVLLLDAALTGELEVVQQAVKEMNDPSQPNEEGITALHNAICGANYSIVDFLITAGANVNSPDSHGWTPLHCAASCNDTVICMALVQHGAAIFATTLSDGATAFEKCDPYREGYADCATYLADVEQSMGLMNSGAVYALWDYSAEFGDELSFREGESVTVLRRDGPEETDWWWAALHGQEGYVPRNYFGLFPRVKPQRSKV

T2: HLT-iASPP Ank-SH3 (human, UniProt Q8WUF5 603-828)
T2 construct: iASPP (human), four ankyrin repeats and SH3 domain, residues 603-828, Swiss-Prot Q8WUF5; Detected on the arrays by its His tag (anti His HRP antibody); source: E. coli HMS 174, purified (Nickel Sepharose, size exclusion chromatography); not shown: HLT (His tag, lipoyl domain, TEV protease cleavage site), N-terminal, kept
T2 sequence (looked up): T1 sequence (Q8WUF5 603-828)

B1: iASPP Pro array peptide 540-554 (spot D3) (peptide)
peptide: Ac-KKQYQQIISRLFHRH-{cellulose membrane}
modifications: also: C-terminus bound to cellulose membrane via amide
notes: iASPP (human) residues 540-554; source: synthetic peptide on CelluSpots array (INTAVIS)
B2: iASPP Pro array peptide 356-370 (spot C3) (peptide)
peptide: Ac-PSSPQPRGAPRQRPI-{cellulose membrane (amide bond)}
modifications: also: C-terminus bound to cellulose membrane via amide
notes: iASPP (human) residues 356-370; source: synthetic peptide on CelluSpots array (INTAVIS)
B3: iASPP Pro array peptide 60-74 (spot A14) (peptide)
peptide: Ac-QAGPPSRPPRYSSSS-{cellulose membrane}
modifications: also: C-terminus bound to cellulose membrane via amide
notes: iASPP (human) residues 60-74; source: synthetic peptide on CelluSpots array (INTAVIS)
B4: iASPP Pro array peptide 548-562 (spot D4) (peptide)
peptide: Ac-SRLFHRHGGPGPGGP-{cellulose membrane}
modifications: also: C-terminus bound to cellulose membrane via amide
notes: iASPP (human) residues 548-562; source: synthetic peptide on CelluSpots array (INTAVIS)
B5: iASPP Pro array peptide 396-410 (spot C8) (peptide)
peptide: Ac-PLFTRAPPPKLQPQP-{cellulose membrane (amide bond)}
modifications: also: C-terminus bound to cellulose membrane via amide
notes: iASPP (human) residues 396-410; source: synthetic peptide on CelluSpots array (INTAVIS)
B6: iASPP Pro array peptide 172-186 (spot B4) (peptide)
peptide: Ac-PTPFDFLGRAGSPRG-{cellulose membrane (amide bond)}
modifications: also: C-terminus bound to cellulose membrane via amide
notes: iASPP (human) residues 172-186; source: synthetic peptide on CelluSpots array (INTAVIS)
B7: iASPP Pro array peptide 196-210 (spot B7) (peptide)
peptide: Ac-FFPERGPSPRPPATA-{cellulose membrane (amide bond)}
modifications: also: C-terminus bound to cellulose membrane via amide
notes: iASPP (human) residues 196-210; source: synthetic peptide on CelluSpots array (INTAVIS)
B8: iASPP Pro array peptide 132-146 (spot A23) (peptide)
peptide: Ac-YGSLDRATSPRPRAF-{cellulose membrane (amide bond)}
modifications: also: C-terminus bound to cellulose membrane via amide
notes: iASPP (human) residues 132-146; source: synthetic peptide on CelluSpots array (INTAVIS)
B9: iASPP Pro array peptide 148-162 (spot B1) (peptide)
peptide: Ac-GAGSSLGRAPSPRPG-{cellulose membrane (amide bond)}
modifications: also: C-terminus bound to cellulose membrane via amide
notes: iASPP (human) residues 148-162; source: synthetic peptide on CelluSpots array (INTAVIS)
B10: iASPP Pro array peptide 484-498 (spot C19) (peptide)
peptide: Ac-VARPLSPTRLQPALP-{cellulose membrane}
modifications: also: C-terminus bound to cellulose membrane via amide
notes: iASPP (human) residues 484-498; source: synthetic peptide on CelluSpots array (INTAVIS)
B11: iASPP Pro array peptide 604-618 (spot D11) (peptide)
peptide: Ac-SMEMRSVLRKAGSPR-{cellulose membrane}
modifications: also: C-terminus bound to cellulose membrane via amide
notes: iASPP (human) residues 604-618; also called iASPP 604-618; source: synthetic peptide on CelluSpots array (INTAVIS)
B12: iASPP Pro array peptide 68-82 (spot A15) (peptide)
peptide: Ac-PRYSSSSIPEPFGSR-{cellulose membrane}
modifications: also: C-terminus bound to cellulose membrane via amide
notes: iASPP (human) residues 68-82; source: synthetic peptide on CelluSpots array (INTAVIS)
B13: iASPP Pro array peptide 340-354 (spot C1) (peptide)
peptide: Ac-GTLPRSWQPVSRIPM-{cellulose membrane (amide bond)}
modifications: also: C-terminus bound to cellulose membrane via amide
notes: iASPP (human) residues 340-354; source: synthetic peptide on CelluSpots array (INTAVIS)
B14: iASPP Pro array peptide 156-170 (spot B2) (peptide)
peptide: Ac-APSPRPGPGPLRQQG-{cellulose membrane (amide bond)}
modifications: also: C-terminus bound to cellulose membrane via amide
notes: iASPP (human) residues 156-170; source: synthetic peptide on CelluSpots array (INTAVIS)
B15: iASPP Pro array peptide 308-322 (spot B21) (peptide)
peptide: Ac-TLPRNYKVSPLASDR-{cellulose membrane (amide bond)}
modifications: also: C-terminus bound to cellulose membrane via amide
notes: iASPP (human) residues 308-322; source: synthetic peptide on CelluSpots array (INTAVIS)
B16: iASPP Pro array peptide 388-402 (spot C7) (peptide)
peptide: Ac-SRAMLPGSPLFTRAP-{cellulose membrane (amide bond)}
modifications: also: C-terminus bound to cellulose membrane via amide
notes: iASPP (human) residues 388-402; source: synthetic peptide on CelluSpots array (INTAVIS)
B17: iASPP Pro array peptide 348-362 (spot C2) (peptide)
peptide: Ac-PVSRIPMPPSSPQPR-{cellulose membrane (amide bond)}
modifications: also: C-terminus bound to cellulose membrane via amide
notes: iASPP (human) residues 348-362; source: synthetic peptide on CelluSpots array (INTAVIS)
B18: iASPP Pro array peptide 324-338 (spot B23) (peptide)
peptide: Ac-SDAGSYRRSLGSAGP-{cellulose membrane (amide bond)}
modifications: also: C-terminus bound to cellulose membrane via amide
notes: iASPP (human) residues 324-338; source: synthetic peptide on CelluSpots array (INTAVIS)
B19: iASPP Pro array peptide 380-394 (spot C6) (peptide)
peptide: Ac-NAFWEHGASRAMLPG-{cellulose membrane (amide bond)}
modifications: also: C-terminus bound to cellulose membrane via amide
notes: iASPP (human) residues 380-394; source: synthetic peptide on CelluSpots array (INTAVIS)

molecular target: T1, iASPP Ank-SH3; test: Fluorescence anisotropy binding of fluorescein-labeled iASPP Pro derived peptides to iASPP Ank-SH3; details: 250 μM iASPP Ank-SH3 titrated into 100 nM fluorescein-labeled peptide, 10 °C, 20 mM Hepes pH 7.3, ionic strength 50 mM
Method: Binding of the iASPP Pro-derived peptides to iASPP Ank-SH3 was measured by fluorescence anisotropy using a PerkinElmer Life Sciences LS-50b spectrofluorimeter equipped with a Hamilton microlab M dispenser. Titration of iASPP Ank-SH3 into iASPP Pro derived fluorescein-labeled (FL) peptides was performed at 10 °C in 20 mM Hepes buffer, pH 7.3, 43 mM NaCl (total ionic strength = 50 mM), 10% glycerol and 5 mM β-mercaptoethanol. The excitation wavelength was set at 480 nm and the emission measured at 530 nm. The labeled peptide, dissolved in 1 ml buffer to a final concentration of 100 nM, was placed in the cuvette. 250 μM iASPP Ank-SH3 was placed in the dispenser and aliquots of 10–20 μl were added at 1.5 min intervals. The solution was then stirred for 30 sec, and the fluorescence and anisotropy were measured. Data were analyzed using the program Origin8 (OriginLab) and were fit to 1:1 binding model:
[drawing 1] (R- measured fluorescence anisotropy, R0- anisotropy value corresponding to the free peptide, ∆R- amplitude of the fluorescence anisotropy change, [Protein]- protein concentration, Kd- dissociation constant).

| binding to iASPP Ank-SH3 (in words) | Molecule |
| --- | --- |
| no binding | APSPRPGPGPLRQQG [iASPP 156-170, iASPP Pro derived peptide, residues 156-170] |
| too weak to quantify | PTPFDFLGRAGSPRG [iASPP 172-186, iASPP Pro derived peptide, residues 172-186] |
| too weak to quantify | YGSLDRATSPRPRAF [iASPP 132-146, iASPP Pro derived peptide, residues 132-146] |
| no binding | TLPRNYKVSPLASDR [iASPP 308-322, iASPP Pro derived peptide, residues 308-322] |
| no binding | SDAGSYRRSLGSAGP [iASPP 324-338, iASPP Pro derived peptide, residues 324-338] |
| too weak to quantify | VARPLSPTRLQPALP [iASPP 484-498, iASPP Pro derived peptide, residues 484-498] |
| too weak to quantify | PLFTRAPPPKLQPQP [iASPP 396-410, iASPP Pro derived peptide, residues 396-410] |
| no binding | PRYSSSSIPEPFGSR [iASPP 68-82, iASPP Pro derived peptide, residues 68-82] |
| no binding | FFPERGPSPRPPATA [iASPP 196-210, iASPP Pro derived peptide, residues 196-210] |

molecular target: T2, HLT-iASPP Ank-SH3; test: peptide or protein array; CelluSpots array of 79 partly overlapping 15-residue iASPP Pro peptides on cellulose; 5 uM HLT-iASPP Ank-SH3 in 20 mM phosphate pH 7.0, ionic strength 150 mM, 5 mM βME, 10% glycerol, 2.5% skimmed milk; 4 °C overnight; detected with anti His HRP antibody; details: both partners purified

| binding result | Molecule |
| --- | --- |
| binds | B1 |
| binds | B2 |
| binds | B3 |
| binds | B4 |
| binds | B5 |
| binds | B6 |
| binds | B7 |
| binds | B8 |
| binds | B9 |
| binds | B10 |
| binds | B11 |
| binds | B12 |
| binds | B13 |
| binds | B14 |
| binds | B15 |
| binds | B16 |
| binds | B17 |
| binds | B18 |
| binds | B19 |
